From patent publication US11390660B2, “Uterine cancer treatments” (Immatics Biotechnologies GmbH, priority 2016, dated 2022)

Assays:
HLA-A*02:01 = HLA-A*02:01 (Homo sapiens, UniProt P04439, D140Y/D185E/D98H/E176V/E277Q/G131W/G231S/I119V/I121R/I166T/I218V/L300P/L318F/N151K/N90K/P208A/P217A/Q86G/Q94H/R138H/R169H/T345S); test: MHC binding assay: UV-ligand exchange with β2m ELISA; details: peptide exchange yield, binding to HLA-A*02:01
Excerpt: Candidate peptides for T cell based therapies according to the present invention were further tested for their MHC binding capacity (affinity). The individual peptide-MHC complexes were produced by UV-ligand exchange, where a UV-sensitive peptide is cleaved upon UV-irradiation, and exchanged with the peptide of interest as analyzed. Only peptide candidates that can effectively bind and stabilize the peptide-receptive MHC molecules prevent dissociation of the MHC complexes. To determine the yield of the exchange reaction, an ELISA was performed based on the detection of the light chain (β2m) of stabilized MHC complexes. The assay was performed as generally described in Rodenko et al. (Rodenko et al., 2006).
96 well MAXISorp plates (NUNC) were coated over night with 2 ug/ml streptavidin in PBS at room temperature, washed 4× and blocked for 1 h at 37° C. in 2% BSA containing blocking buffer. Refolded HLA-A*02:01/MLA-001 monomers served as standards, covering the range of 15-500 ng/ml. Peptide-MHC monomers of the UV-exchange reaction were diluted 100 fold in blocking buffer. Samples were incubated for 1 h at 37° C., washed four times, incubated with 2 ug/ml HRP conjugated anti-β2m for 1 h at 37° C., washed again and detected with TMB solution that is stopped with […]. Absorption was measured at 450 nm. Candidate peptides that show a high exchange yield (preferably higher than 50%, most preferred higher than 75%) are generally preferred for a generation and production of antibodies or fragments thereof, and/or T cell receptors or fragments thereof, as they show sufficient avidity to the MHC molecules and prevent dissociation of the MHC complexes.

CD8+ T cells = test: In vitro T-cell priming assay with aAPCs loaded with peptide/MHC complexes and anti-CD28 antibody, pMHC multimer readout; type: cell-based, human; details: in vitro immunogenicity, HLA-A*02 restricted peptides, positive wells among evaluable (Table 10B)
Excerpt: In order to obtain information regarding the immunogenicity of the TUMAPs of the present invention, the inventors performed investigations using an in vitro T-cell priming assay based on repeated stimulations of CD8+ T cells with artificial antigen presenting cells (aAPCs) loaded with peptide/MHC complexes and anti-CD28 antibody.
In order to perform in vitro stimulations by artificial antigen presenting cells loaded with peptide-MHC complex (pMHC) and anti-CD28 antibody, the inventors first isolated CD8+ T cells from fresh HLA-A*02 leukapheresis products via positive selection using CD8 microbeads (Miltenyi Biotec, Bergisch-Gladbach, Germany) of healthy donors obtained from the University clinics Mannheim, Germany, after informed consent.
PBMCs and isolated CD8+ lymphocytes were incubated in T-cell medium (TCM) until use consisting of RPMI-Glutamax (Invitrogen, Karlsruhe, Germany) supplemented with 10% heat inactivated human AB serum (PAN-Biotech, Aidenbach, Germany), 100 U/ml Penicillin/100 μg/ml Streptomycin (Cambrex, Cologne, Germany), 1 mM sodium pyruvate (CC Pro, Oberdorla, Germany), 20 μg/ml Gentamycin (Cambrex). 2.5 ng/ml IL-7 (PromoCell, Heidelberg, Germany) and 10 U/ml IL-2 (Novartis Pharma, Nürnberg, Germany) were also added to the TCM at this step.
Generation of pMHC/anti-CD28 coated beads, T-cell stimulations and readout was performed in a highly defined in vitro system using four different pMHC molecules per stimulation condition and 8 different pMHC molecules per readout condition.
The purified co-stimulatory mouse IgG2a anti human CD28 Ab 9.3 (Jung et al., 1987) was chemically biotinylated using Sulfo-N-hydroxysuccinimidobiotin as recommended by the manufacturer (Perbio, Bonn, Germany). Beads used were 5.6 μm diameter streptavidin coated polystyrene particles (Bangs Laboratories, Illinois, USA).
800.000 beads/200 μI were coated in 96-well plates in the presence of 4×12.5 ng different biotin-pMHC, washed and 600 ng biotin anti-CD28 were added subsequently in a volume of 200 μI. Stimulations were initiated in 96-well plates by co-incubating 1×10^6 CD8+ T cells with 2×10^5 washed coated beads in 200 μI TCM supplemented with 5 ng/ml IL-12 (PromoCell) for 3 days at 37° C. Half of the medium was then exchanged by fresh TCM supplemented with 80 U/ml IL-2 and incubating was continued for 4 days at 37° C. This stimulation cycle was performed for a total of three times. For the pMHC multimer readout using 8 different pMHC molecules per condition, a two-dimensional combinatorial coding approach was used as previously described (Andersen et al., 2012) with minor modifications encompassing coupling to 5 different fluorochromes. Finally, multimeric analyses were performed by staining the cells with Live/dead near IR dye (Invitrogen, Karlsruhe, Germany), CD8-FITC antibody clone SK1 (BD, Heidelberg, Germany) and fluorescent pMHC multimers. For analysis, a BD LSRII SORP cytometer equipped with appropriate lasers and filters was used. Peptide specific cells were calculated as percentage of total CD8+ cells. Evaluation of multimeric analysis was done using the FlowJo software (Tree Star, Oregon, USA). In vitro priming of specific multimer+ CD8+ lymphocytes was detected by comparing to negative control stimulations.

Substance	Peptide exchange (HLA-A*02:01)	Wells positive [%] (CD8+ T cells)
10 (AILDVVVNL; listed as Homo sapiens) [compound 10]	++++ (> 75% = ++++)	+ (<20% = +)
23 (GLGPNLVGV; listed as Homo sapiens) [compound 23]	++++ (> 75% = ++++)	++++ (> = 70% = ++++)
1 (KLLDNLHDL; listed as Homo sapiens) [compound 1]	++++ (> 75% = ++++)	+ (<20% = +)
3 (GLDGATYTV; listed as Homo sapiens) [compound 3]	+++ (>50 = +++)	++++ (> = 70% = ++++)
14 (FLVDSLISA; listed as Homo sapiens) [compound 14]	++++ (> 75% = ++++)	++ (20%-49% = ++)
9 (SLYPGTETM; listed as Homo sapiens) [compound 9]	+++ (>50 = +++)	+ (<20% = +)
